The source of these data is the supplement of paper PMC7877785.

The nature of the series: self-splicing fitness, log relative to wild type (ln ratio); higher = more splicing; Tetrahymena group I intron in knt gene, E. coli kanamycin selection, DiMSum; sequences stand for … in CUCUCU…GGAGGGAAAAGUUAUCAGGCAUGCACCUGGUAGCUAGUCUUUAAACCAAUAGAUUGCAUCGGUUUAAAAGGCAAGACCGUCAAAUUGCGGGAAAGGGGUCAACAGCCGUUCAGUACCAAGUCUCAGGGGAAACUUUGAGAUGGCCUUGCAAAGGGUAUGGUAAUAAGCUGACGGACAUGGUCCUAACCACGCAGCCAAGUCCUAAGUCAACAGAUCUUCUGUUGAUAUGGAUGCAGUUCACAGACUAAAUGUCGGUCGGGGAAGAUGUAUUCUUCUCAUAAGAUAUAGUCGGACCUCUCCUUAAUGGGAGCUAGCGGAUGAAGUGAUGCAACACUGGAGCCGCUGGGAACUAAUUUGUAUGCGAAAGUAUAUUGAUUAGUUUUGGAGUACUCGUGGUCG
Summed up:
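Fitness was computed with DiMSum as the error-weighted combination of replicate fold changes, kanamycin versus none, each normalised to wild type. The library randomised all eight intron nucleotides of the P1ex region, with the intron placed in the knt kanamycin-resistance gene on pET-22b(+) in E. coli BL21(DE3). Six replicate transformations were grown overnight at 37°C or 30°C on LB agar with or without 25 μg/mL kanamycin, plus 100 μg/mL carbenicillin, 50 μM IPTG and 0.2% rhamnose. Pooled colonies were amplicon-sequenced on an Illumina HiSeq 2500.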

± gives the uncertainty stated by the source.

Consider GCCAAGCAAUAUUACGUGCA, for which the “self-splicing fitness (ln)” value reads like this: (30 °C) -1.63 ± 0.087; (37 °C) -0.541 ± 0.09.
The like results for GCCAAGCAAUAUUACGUUGA were, in that order, -2.53 ± 0.065 and -1.39 ± 0.065.
For GCCCAGCAAUAUUACGACAG, the “self-splicing fitness (ln)” value reads like this: (30 °C) -3.6 ± 0.19; (37 °C) -1.78 ± 0.14.
The like results for GCCCAGCAAUAUUACGACCC were, in that order, -0.0226 ± 0.14 and -0.0967 ± 0.21.
Take GCCCAGCAAUAUUACGACCU: the “self-splicing fitness (ln)” value reads like this: (30 °C) -1.07 ± 0.12; (37 °C) -0.407 ± 0.15.
The like results for GCCCAGCAAUAUUACGACGA were, in that order, -1.31 ± 0.15 and -0.475 ± 0.15.
As to GCCCAGCAAUAUUACGAGGU, the “self-splicing fitness (ln)” value (30 °C) was -3.81 ± 0.2 and the “self-splicing fitness (ln)” value (37 °C) is -3.07 ± 0.22.
The like results for GCCCAGCAAUAUUACGAGUU were, in that order, -1.13 ± 0.048 and -0.432 ± 0.066.
The like results for GCCCAGCAAUAUUACGAUAG were, in that order, -2.76 ± 0.14 and -3.33 ± 0.2.
The like results for GCCCAGCAAUAUUACGCCUU were, in that order, -1.02 ± 0.081 and 0.189 ± 0.088.
In the case of GCCCAGCAAUAUUACGCGAG, the “self-splicing fitness (ln)” value by setting is: (30 °C) -2.72 ± 0.11; (37 °C) -1.73 ± 0.13.
The like results for GCCCAGCAAUAUUACGCGGG were, in that order, -3.71 ± 0.2 and -2.31 ± 0.22.
In the case of GCCCAGCAAUAUUACGCUCU, the “self-splicing fitness (ln)” value (30 °C) came out at 0.00415 ± 0.05 and the “self-splicing fitness (ln)” value (37 °C) was determined as 0.138 ± 0.066.
The like results for GCCCAGCAAUAUUACGCUUC were, in that order, -1.18 ± 0.089 and -1.33 ± 0.091.
The like results for GCCCAGCAAUAUUACGGAAU were, in that order, -0.828 ± 0.056 and 0.223 ± 0.078.
The like results for GCCCAGCAAUAUUACGGGUA were, in that order, -1.34 ± 0.061 and -0.511 ± 0.06.
Regarding GCCCAGCAAUAUUACGGGUU, the “self-splicing fitness (ln)” value is -3.01 ± 0.12 (30 °C) and -3.4 ± 0.19 (37 °C).
The like results for GCCCAGCAAUAUUACGGUCG were, in that order, -1.61 ± 0.083 and -1.31 ± 0.096.
The like results for GCCCAGCAAUAUUACGGUCU were, in that order, -1.97 ± 0.063 and -0.732 ± 0.081.
The like results for GCCCAGCAAUAUUACGUAGU were, in that order, -0.118 ± 0.051 and -0.0932 ± 0.066.
On to GCCCAGCAAUAUUACGUCUG, for which the “self-splicing fitness (ln)” value is -3.86 ± 0.14 (30 °C) and -2.73 ± 0.17 (37 °C).
Consider GCCCAGCAAUAUUACGUGCU, for which the “self-splicing fitness (ln)” value is, setting by setting: (30 °C) -3.14 ± 0.16; (37 °C) -2.88 ± 0.21.
The like results for GCCCAGCAAUAUUACGUUCC were, in that order, -1.28 ± 0.096 and -0.603 ± 0.14.
The like results for GCCCAGCAAUAUUACGUUGC were, in that order, -1.11 ± 0.063 and -0.368 ± 0.094.
The like results for GCCGAGCAAUAUUACGAAUG were, in that order, -3.59 ± 0.3 and -2.75 ± 0.27.
Regarding GCCGAGCAAUAUUACGACUU, the “self-splicing fitness (ln)” value (30 °C) was -1.04 ± 0.31 and the “self-splicing fitness (ln)” value (37 °C) was -0.625 ± 0.34.
The like results for GCCGAGCAAUAUUACGAGGA were, in that order, -1.32 ± 0.11 and -0.747 ± 0.1.
The like results for GCCGAGCAAUAUUACGAUCA were, in that order, -1.91 ± 0.12 and -1.69 ± 0.15.
GCCGAGCAAUAUUACGCAAA: the “self-splicing fitness (ln)” value (37 °C) was -1.05 ± 0.34.
Consider GCCGAGCAAUAUUACGCAAG, for which the “self-splicing fitness (ln)” value by setting is: (30 °C) -2.91 ± 0.44; (37 °C) -1.25 ± 0.36.
The like results for GCCGAGCAAUAUUACGCCUG were, in that order, -3.59 ± 0.23 and -2.03 ± 0.22.
The like results for GCCGAGCAAUAUUACGCGGA were, in that order, -1.04 ± 0.17 and 0.224 ± 0.14.
The like results for GCCGAGCAAUAUUACGCGUG were, in that order, -2.05 ± 0.088 and -1.32 ± 0.091.
Regarding GCCGAGCAAUAUUACGCUCA, the “self-splicing fitness (ln)” value is, setting by setting: (30 °C) -0.335 ± 0.17; (37 °C) -0.829 ± 0.21.
In the case of GCCGAGCAAUAUUACGGAGC, the “self-splicing fitness (ln)” value (30 °C) was -2.69 ± 0.44.
As to GCCGAGCAAUAUUACGGCCC, the “self-splicing fitness (ln)” value is, setting by setting: (30 °C) -2.4 ± 0.19; (37 °C) -1.93 ± 0.24.
The like results for GCCGAGCAAUAUUACGGCGC were, in that order, -1.48 ± 0.23 and -0.221 ± 0.23.
The like results for GCCGAGCAAUAUUACGGGAA were, in that order, -1.01 ± 0.073 and -0.813 ± 0.088.
The like results for GCCGAGCAAUAUUACGGGCA were, in that order, -2.24 ± 0.25 and -0.776 ± 0.17.
With GCCGAGCAAUAUUACGGGCU, the “self-splicing fitness (ln)” value (30 °C) was -3.27 ± 0.23 and the “self-splicing fitness (ln)” value (37 °C) is -2.43 ± 0.27.
The like results for GCCGAGCAAUAUUACGGUAA were, in that order, -0.184 ± 0.11 and -0.414 ± 0.091.
The like results for GCCGAGCAAUAUUACGGUGU were, in that order, -2.57 ± 0.11 and -0.986 ± 0.11.
The like results for GCCGAGCAAUAUUACGUAUU were, in that order, -3.72 ± 0.21 and -1.9 ± 0.15.
As for GCCGAGCAAUAUUACGUCCG, the “self-splicing fitness (ln)” value is -3.69 ± 0.28 (30 °C) and -2.87 ± 0.29 (37 °C).
The like results for GCCGAGCAAUAUUACGUGAG were, in that order, -1.23 ± 0.09 and -0.333 ± 0.12.
The like results for GCCGAGCAAUAUUACGUGUC were, in that order, -3.23 ± 0.14 and -1.64 ± 0.12.
The like results for GCCGAGCAAUAUUACGUUGA were, in that order, -3 ± 0.16 and -2.88 ± 0.2.
In the case of GCCGAGCAAUAUUACGUUUC, the “self-splicing fitness (ln)” value (30 °C) is -3.12 ± 0.14 and the “self-splicing fitness (ln)” value (37 °C) is -2.28 ± 0.15.
The like results for GCCUAGCAAUAUUACGAAGA were, in that order, -1.82 ± 0.24 and -0.65 ± 0.12.
Take GCCUAGCAAUAUUACGACUA: the “self-splicing fitness (ln)” value (37 °C) was -1.93 ± 0.38.
On to GCCUAGCAAUAUUACGAGCA, for which the “self-splicing fitness (ln)” value (30 °C) is -2.26 ± 0.33 and the “self-splicing fitness (ln)” value (37 °C) was -0.418 ± 0.17.
The like results for GCCUAGCAAUAUUACGCACA were, in that order, -0.975 ± 0.12 and -0.604 ± 0.13.
With GCCUAGCAAUAUUACGCAUU, the “self-splicing fitness (ln)” value was -0.686 ± 0.051 (30 °C) and -0.35 ± 0.062 (37 °C).
The like results for GCCUAGCAAUAUUACGCCAC were, in that order, -2.82 ± 0.26 and -2.2 ± 0.23.
On to GCCUAGCAAUAUUACGCGAC, for which the “self-splicing fitness (ln)” value reads like this: (30 °C) -1.92 ± 0.19; (37 °C) -1.05 ± 0.27.
The like results for GCCUAGCAAUAUUACGCGAG were, in that order, -2.33 ± 0.21 and -2.29 ± 0.16.
The like results for GCCUAGCAAUAUUACGCGGA were, in that order, -0.245 ± 0.08 and 0.226 ± 0.093.
The like results for GCCUAGCAAUAUUACGCUAC were, in that order, -2.7 ± 0.21 and -2.81 ± 0.36.
GCCUAGCAAUAUUACGCUGU: the “self-splicing fitness (ln)” value reads like this: (30 °C) -0.847 ± 0.09; (37 °C) 0.254 ± 0.096.
The like results for GCCUAGCAAUAUUACGGAAC were, in that order, -0.183 ± 0.091 and 0.0968 ± 0.16.
The like results for GCCUAGCAAUAUUACGGACG were, in that order, -1.98 ± 0.2 and -0.148 ± 0.18.
The like results for GCCUAGCAAUAUUACGGAGU were, in that order, -0.965 ± 0.085 and -0.198 ± 0.094.
As for GCCUAGCAAUAUUACGGAUC, the “self-splicing fitness (ln)” value by setting is: (30 °C) -0.351 ± 0.12; (37 °C) -0.096 ± 0.16.
The like results for GCCUAGCAAUAUUACGGGGU were, in that order, -3.83 ± 0.19 and -2.19 ± 0.19.
As for GCCUAGCAAUAUUACGUACA, the “self-splicing fitness (ln)” value is, setting by setting: (30 °C) -2.54 ± 0.14; (37 °C) -1.7 ± 0.13.
The like results for GCCUAGCAAUAUUACGUACC were, in that order, -1.18 ± 0.099 and -0.205 ± 0.12.
The like results for GCCUAGCAAUAUUACGUAGC were, in that order, -0.323 ± 0.11 and -0.445 ± 0.11.
The like results for GCCUAGCAAUAUUACGUAGG were, in that order, -3.69 ± 0.18 and -2.93 ± 0.25.
With GCCUAGCAAUAUUACGUAGU, the “self-splicing fitness (ln)” value is -0.126 ± 0.068 (30 °C) and 0.357 ± 0.088 (37 °C).
Turning to GCCUAGCAAUAUUACGUAUG, the “self-splicing fitness (ln)” value is, setting by setting: (30 °C) -3.92 ± 0.16; (37 °C) -2.61 ± 0.13.
The like results for GCCUAGCAAUAUUACGUAUU were, in that order, -1.83 ± 0.098 and -1.73 ± 0.14.
The like results for GCCUAGCAAUAUUACGUCCA were, in that order, -2.37 ± 0.18 and -1.38 ± 0.18.
The like results for GCCUAGCAAUAUUACGUCUC were, in that order, -0.71 ± 0.064 and -0.518 ± 0.086.
Regarding GCCUAGCAAUAUUACGUGUG, the “self-splicing fitness (ln)” value (30 °C) was -1.85 ± 0.057 and the “self-splicing fitness (ln)” value (37 °C) was -0.937 ± 0.065.
As to GCGAAGCAAUAUUACGAAGA, the “self-splicing fitness (ln)” value is, setting by setting: (30 °C) -2.14 ± 0.22; (37 °C) -0.931 ± 0.21.
